Laboratory results published in patent publication US8722850B2, “Self-assembling peptides and their use in the formation of hydrogels” (Universita' Degli Studi di Milano Bicocca, priority 2010, dated 2014).
[ ]: non-standard residue; d: D form. The star is where a group is joined. Biotin = O=C1N[C@H]2[C@H](CS[C@H]2CCCCC(=O)*)N1; NHPr = CCCN*

Experiments:
[1] = Self-healing tests of assembled scaffolds after mechanical rupture; format: physicochemical; conditions: recovery of scaffold stiffness after mechanical rupture
Method: (§1) Rheological properties were determined for the peptides of the invention, using a controlled stress TA Instruments AR-2000ex rheometer (TAInstruments). A cone-and-plate geometry (acrylic cone diameter, 20 mm; angle, 1°; truncation gap 34 μm) was used. All measurements were obtained at a constant monitored temperature of 25° C. Preliminary strain sweeps were performed for each sample to define the linear viscoelastic region, thus ensuring that moduli were independent of strain. Time sweeps, after addition of PBS (1×) were recorded at constant angular frequency (ω=1 Hz). Frequency sweeps, both for peptide water solutions and for self-assembled scaffolds, were performed with the instrument in oscillatory mode at controlled strain of 1%. Final: onset point of rupture was calculated by linear interpolation and subsequent determination of the intersection of the G′ modes in the linear region and at material rupture respectively. G′ values were averaged in the 1-100 Hz region and between n=3 independent replicates. During self-healing tests the self-assembled scaffold was torn by applying a strain sweep (0.01%-1000% strain range) at 1 Hz oscillatory frequency. G′ values were is recorded in frequency sweep mode (at 1% strain) or, in time sweep mode (at 1 Hz and at 1% strain), before and after the strain sweep step, subsequent observations were performed every half hour or, in case of time sweep test, every 30 seconds. In all of the SAPs the difference between the storage moduli measured before and after PBS addition spanned from two to four orders of magnitude, proving the dramatic biomechanical changes taking place during scaffold gelation. Peptide B3 (1%) yielded a solid stiff scaffold (G′=2917 Pa), supporting the idea that ionic charges may screen the electrostatic repulsions given by positively charged lysine residues and speed up the spontaneous ongoing self-assembling process, on its turn giving an already viscous (G′=67 Pa) and opaque solution at day 1. Among the peptides giving soft scaffold (100 Pa-1000 Pa range) peptides 4, B19, B25, B28 and 30 were included. On the opposite side, SAPs yielding solid stiff scaffolds are B15, B22, B24, B27 and 31 (5000 Pa-9000 Pa range).
Solid scaffolds were obtained via addition of PBS (1×) in a cone-and-plate rheometer; we measured the storage modulus, the samples were subjected to a strain sweep (0.01% to 1000%) until and far beyond rupture occurred (i.e. is monitoring the sudden drop of G′ value). Samples were then left in place (keeping them hydrated with PBS) and their G′ were measured every 30 minutes via frequency sweep tests in the range of 0.1 Hz to 60 Hz. As a negative control KLD-12, a well-known SAP, was tested (4, 6). […] In FIG. 6b peptide B25 (3% w/v concentration) was assessed for self-healing in a time sweep mode, every 30 seconds, at 1 Hz and at 1% strain. Values of G′ recovered after 100 minutes (1000 Pa) and steadily plateaued over time. For peptides B3, B22, B25 and B27 full recovery was obtained at different time intervals after rupture, ranging from 60′ to 240′. Similar results were confirmed by multiple independent experiments, but at different time ranges, for all of the self-assembling peptides except for B19 and B28.
Samples were checked for rupture by tilting. After a maximum of four hours all of the samples returned to their solidified gel appearance. This healing could be repeated at will.

[2] = system: human Neural Stem Cells (hNSCs); test: Phase contrast imaging of hNSC morphology on scaffolds; format: cell-based; conditions: 7 days in vitro
Method: (§2) In vitro tests were performed following a previously adopted methodology (5). Briefly, cells (at a concentration of 6×10^4 cells/cm^2) were seeded on the top-surface of each assembled scaffold previously assembled into 96 multiwells. Initially, cells were cultured with basal medium supplemented with βFGF (10 ng/ml), added to enhance neuronal progeny differentiation. At 3 days in vitro (DIV), βFGF medium was replaced with Leukemia Inhibitory Factor (LIF, Chemicon) (20 ng/ml) and Brain Derived Neurotrophic Factor (BDNF, Peprotech) (20 ng/ml). Fresh medium was added every three days. Positive and negative controls consisted of CULTREX-BME® substrate (R&D systems) (1:100 dilution in basal medium) and untreated bottom well surfaces respectively.
(§3) To assess the potential of the proposed SAPs for cell cultures and, more generally, for regenerative medicine, a two-dimensional cell culture protocol already developed for RADA16-I-like peptides was adapted (5). Briefly, human Neural Stem Cells (hNSCs), mechanically dissociated 1 day before plating, were seeded and cultured for one week in vitro over self-assembled scaffolds of B3, 4, B15, B17, B19, B22, B24, B25, B27, B28, 30, 31 and over non-coated tissue culture plastic wells (negative control).

[3] = Macro-scale scaffold formation upon exposure to PBS / neutral pH buffer; format: physicochemical; conditions: upon exposure to PBS (1×) / neutral pH buffer
Source text: The tested peptides solutions appearance ranged from peptides giving clear liquid is solutions (e.g. 4, B15, B19, B25, B28, 30) to samples which become opaque in 1 to 7 days after dissolution (e.g. B3, B17, B22, B24, B27, 31) as shown in FIG. 2a (I). Most of the liquid solutions increased in viscosity over the first week after dissolution, however after ten days in water no appreciable changes happened at the macroscale.
(§4) Nonetheless, keeping constant the observation time, the storage moduli of peptide solutions previously dissolved (the day before) at 3% w/v were measured. Measurements were obtained of these peptide solutions, further diluted to 1% w/v at the same day of the experiment (unless otherwise specified), and, after addition of PBS, of the formed scaffolds.

[4] = system: human Neural Stem Cells (hNSCs); test: CellTiter 96 Aqueous Proliferation Assay of hNSCs on self-assembled scaffolds; format: cell-based; conditions: 7 DIV, n=6, versus negative control (plastic)
Method: Neural precursor cultures are established and expanded as previously described (15, 16). Human neural stem cells (NSCs) were isolated from the central nervous system, in particular from the diencephalon and the cerebral cortex of human brain 10.5 weeks from conception. The modalities for obtaining the primary tissue are in agreement with the guidelines of the European Network for Transplantation (NECTAR).
as §2
Cell viability was quantified via […] 96® Aqueous Proliferation Assay (Promega, Madison, Wis.) at 7 DIV as recommended in the Promega protocol. After calibrating the linear response between the cell number and absorbance values, proliferated cell populations were quantified (n=6) by using a Vmax microplate reader (Molecular Devices, Sunnyvale, Calif.) at 490 nm wavelength. Values, reported as means±standard error of the mean, were blanked to their respective controls consisting of same substrates and cell culture media without cells.
as §3

[5] = Rheological tests (storage modulus G′, cone-and-plate rheometer); format: physicochemical
Method: as §1
The mechanical properties of the synthesized peptides were tested with a cone-and-plate rheometer. Firstly, the G′ dependence of peptide water solutions on concentration increments, and consequently aggregation kinetics, was assessed as shown in FIG. 2b.
as §4

[6] = Solubility and behaviour on dissolution in water; format: physicochemical
Source text: All of the synthesized peptides are soluble at 1% w/v concentration in distilled water and in acid (0.1 M HCl) solutions.

Substance | self-healing property [1] | cell morphology / degree of spreading [2] | solid scaffold / hydrogel formation [3] | living cell population / hNSC viability (CellTiter assay) [4] | minimum necessary peptide concentration for gelation [5] | storage modulus G′ of assembled scaffold (G′ post-assembling) ([5]; after PBS (1×) addition, averaged in 1-100 Hz range, 25° C., B3 at 1%) | self-assembling on dissolution [6]
Ac-WGGGAFSSTKT-CONH2 (Ac-WGGGAFSSTKT-NH2) [peptide 31] | self-healing property has been seen | branched cells | yielded solid scaffolds | comparable to the biotinilated peptides | – | – | –
Ac-WGGGPFSSTKT-CONH2 (Ac-WGGGPFSSTKT-NH2) [peptide 4] | self-healing property has been seen | – | yielded solid scaffolds | comparable to the biotinilated peptides | – | – | –
Biot-GGG(Propylamine)FSSTKT-CONH2 (Biotin-GGG[NHPr]FSSTKT-NH2) [peptide B28] | – | proliferated cell clusters | yielded solid scaffolds | cell population comparable to those of the other peptides | 3 % w/v | – | –
Biot-GGGAFSSTKT-CONH2 (Biotin-GGGAFSSTKT-NH2; SMILES C[C@H](NC(=O)CNC(=O)CNC(=O)CNC(=O)CCCC[C@@H]1SC[C@@H]2NC(=O)N[C@@H]21)C(=O)N[C@@H](Cc1ccccc1)C(=O)N[C@@H](CO)C(=O)N[C@@H](CO)C(=O)N[C@H](C(=O)N[C@@H](CCCCN)C(=O)N[C@H](C(N)=O)[C@@H](C)O)[C@@H](C)O) [B15] | self-healing property has been seen | branched cells | yielded solid scaffolds | biggest living cell populations, significantly different from negative control | – | 8500 Pa | –
Biot-GGGAFSSTKTGRGD-CONH2 (Biotin-GGGAFSSTKTGRGD-NH2; SMILES C[C@H](NC(=O)CNC(=O)CNC(=O)CNC(=O)CCCC[C@@H]1SC[C@@H]2NC(=O)N[C@@H]21)C(=O)N[C@@H](Cc1ccccc1)C(=O)N[C@@H](CO)C(=O)N[C@@H](CO)C(=O)N[C@H](C(=O)N[C@@H](CCCCN)C(=O)N[C@H](C(=O)NCC(=O)N[C@@H](CCCNC(=N)N)C(=O)NCC(=O)N[C@@H](CC(=O)O)C(N)=O)[C@@H](C)O)[C@@H](C)O) [B19] | – | – | yielded solid scaffolds | significantly different from negative control | – | – | –
Biot-GGGPFSSTDT-CONH2 (Biotin-GGGPFSSTDT-NH2; SMILES C[C@@H](O)[C@H](NC(=O)[C@H](CC(=O)O)NC(=O)[C@@H](NC(=O)[C@H](CO)NC(=O)[C@H](CO)NC(=O)[C@H](Cc1ccccc1)NC(=O)[C@@H]1CCCN1C(=O)CNC(=O)CNC(=O)CNC(=O)CCCC[C@@H]1SC[C@@H]2NC(=O)N[C@@H]21)[C@@H](C)O)C(N)=O) [B10] | – | – | – | – | – | – | immediately self-assembling with dissolution in water
Biot-GGGPFSSTET-CONH2 (Biotin-GGGPFSSTET-NH2; SMILES C[C@@H](O)[C@H](NC(=O)[C@H](CCC(=O)O)NC(=O)[C@@H](NC(=O)[C@H](CO)NC(=O)[C@H](CO)NC(=O)[C@H](Cc1ccccc1)NC(=O)[C@@H]1CCCN1C(=O)CNC(=O)CNC(=O)CNC(=O)CCCC[C@@H]1SC[C@@H]2NC(=O)N[C@@H]21)[C@@H](C)O)C(N)=O) [B12] | – | – | – | – | – | – | immediately self-assembling with dissolution in water
Biot-GGGPFSSTNT-CONH2 (Biotin-GGGPFSSTNT-NH2; SMILES C[C@@H](O)[C@H](NC(=O)[C@H](CC(N)=O)NC(=O)[C@@H](NC(=O)[C@H](CO)NC(=O)[C@H](CO)NC(=O)[C@H](Cc1ccccc1)NC(=O)[C@@H]1CCCN1C(=O)CNC(=O)CNC(=O)CNC(=O)CCCC[C@@H]1SC[C@@H]2NC(=O)N[C@@H]21)[C@@H](C)O)C(N)=O) [B11] | – | – | – | – | – | – | immediately self-assembling with dissolution in water
